# In US6713265:
# T1: rat Y4 receptor (rat), Q63447
# T1 chain: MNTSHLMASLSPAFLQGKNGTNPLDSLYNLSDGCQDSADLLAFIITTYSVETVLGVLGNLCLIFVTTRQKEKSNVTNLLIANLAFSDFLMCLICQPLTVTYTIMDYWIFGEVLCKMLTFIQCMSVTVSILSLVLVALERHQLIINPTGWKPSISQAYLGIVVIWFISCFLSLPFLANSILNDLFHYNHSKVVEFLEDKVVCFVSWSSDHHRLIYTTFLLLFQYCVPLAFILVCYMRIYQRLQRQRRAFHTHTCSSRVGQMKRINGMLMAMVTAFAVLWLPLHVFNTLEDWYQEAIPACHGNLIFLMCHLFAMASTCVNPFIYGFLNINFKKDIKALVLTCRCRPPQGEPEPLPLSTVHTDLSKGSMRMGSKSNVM
# Biological target: T1, rat Y4 receptor (rat), Q63447
# Test: 125I-PYY displacement, COS-7 membranes
# Details: remark: other sources report otherwise
binder,measurement,value
"PAEDLARYYSALRHYINLITRQRY (peptide, UniProt P01304 22-45, looked up) [porcine NPY13-36, P01304 22-45]",Ki,140 nM
